The test system of assay [1] is A375 human melanoma cells. Description: Tumor cell killing by activated PBMC, caspase-3/7 apoptosis. Type of assay: cell-based. As to conditions: A375, SEMG2-positive, co-culture with activated PBMC 10:1. How it is done:
(§1) To test the above hypothesis, the effects of different epitope-specific antibodies on tumor cell killing by activated PBMC were compared. Specifically, A375 human melanoma and LOVO human colorectal cancer cells highly expressing SEMG2 were seeded in 96-well plate. Human peripheral blood mononuclear cells (PBMC; #70025, Stem Cell) were activated with 100 ng/mL of CD3 antibody, 100 ng/mL, of CD28 antibody, and 1.0 ng/mL of IL2 (#317303; #302913; #589102, BioLegend), respectively, and co-cultured with the above tumor cells at a ratio of 10:1 in presence of fluorescent caspase-3/7 substrate (#4440, Essen Bioscience). After 1.0 hours, cells were observed under fluorescence microscope.
(§2) To verify the above hypothesis, tumor cells with high SEMG2 expression (A375, LOVO) and SEMG2-negative tumor cells (DLD1, NCM460 and NCI-H1975) were selected. Different antibodies (irrelevant mouse IgG antibodies, MM02 or MM05 antibodies) were added during the PBMC killing experiments for the tumor cells.
(§3) To verify the effect of the human antibodies on the function of activated PBMC on tumor cell killing, A375 and LOVO cells were co-cultured with activated PBMC, and H88-93, H88-96, or H88-67 antibody was added at the same time, and the apoptosis ratio of tumor cells were detected.

The test system of assay [2] is LOVO human colorectal cancer cells. The description is as above. In kind it is cell-based. As to conditions: SEMG2-positive, co-culture with activated PBMC 10:1. How it is done:
as §1, §2, §3

In assay [3] the target is T1, SEMG2(497-509) fragment (Homo sapiens, UniProt Q02383).
T1 construct: SEMG2(497-509) fragment and SEMG2(563-574) fragment were immobilized on the ELISA plate; made in house; host or cells: chemical synthesis
Briefly: ELISA binding of antibodies to SEMG2(497-509) epitope. How it is done:
Specifically, SEMG2 full-length protein (1-582), SEMG2(354-403) fragment, SEMG2(442-453) fragment, SEMG2(497-509) fragment and SEMG2(563-574) fragment were immobilized on the ELISA plate, and the same concentration of antibodies (MM02, MM05, MM07, MM08, MM13, MM14, HPA042767 and HPA042835) were added. Anti-mouse or anti-rabbit secondary antibodies were then used to detect the corresponding bound antibodies. MM02, MM05, MM07, MM08, MM13, and MM14 all bound to SEMG2(497509) epitope, HPA042767 bound to SEMG2 (354-403) epitope, and HPA042835 bound to […], while none of the antibodies bound to SEMG2 (442-453) control fragment.
Specifically, the preparation of polypeptide antigens and the screening of human natural antibody library were firstly performed. The SEMG2(497-509) polypeptide was synthesized and coupled to BSA and KLH, respectively, and screened in a fully human phage display antibody library. ELISA was used to select clones that bind to antigenic epitopes for preliminary screening. Different unique sequences were obtained after sequencing single colonies, sorted according to affinity sorting, and full-length antibodies were constructed from antigen-binding fragments (Fab) with relatively high affinity. The binding ability and blocking function tests were performed after purification, that is, the effect of the antibody on binding between SEMG2 and CD27 was determined by the ELISA experiment.

Assay [4] deals with T2, binding between SEMG2 and CD27 (Homo sapiens, UniProt Q02383).
T2 sequence (Q02383 24-582): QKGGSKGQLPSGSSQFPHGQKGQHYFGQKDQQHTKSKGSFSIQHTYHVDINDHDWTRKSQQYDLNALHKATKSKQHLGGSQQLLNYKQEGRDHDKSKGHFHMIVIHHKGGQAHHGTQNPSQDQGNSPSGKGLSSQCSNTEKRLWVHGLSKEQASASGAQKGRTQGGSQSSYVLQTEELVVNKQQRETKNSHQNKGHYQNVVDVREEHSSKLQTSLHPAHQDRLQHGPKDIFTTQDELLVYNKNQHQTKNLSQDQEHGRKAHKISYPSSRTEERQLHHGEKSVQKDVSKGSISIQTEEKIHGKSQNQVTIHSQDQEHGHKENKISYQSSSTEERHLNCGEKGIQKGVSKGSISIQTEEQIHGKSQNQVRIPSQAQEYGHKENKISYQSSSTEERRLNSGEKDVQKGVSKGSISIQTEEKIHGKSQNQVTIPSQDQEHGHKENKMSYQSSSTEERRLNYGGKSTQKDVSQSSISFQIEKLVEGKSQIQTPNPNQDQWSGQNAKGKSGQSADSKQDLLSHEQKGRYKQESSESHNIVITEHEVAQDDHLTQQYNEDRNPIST
Description: Antibody blocking ELISA of SEMG2 binding to CD27-Fc. As to conditions: antibody 10 μg/mL. An excerpt:
Because SEMG2 (497-509) sequence fragment is the key epitope of SEMG2 binding to CD27, and has a relatively short sequence, so SEMG2 (497-509) was used as an immunogen to prepare antibodies, which is theoretically easier to obtain functional antibody molecules with the function of blocking the binding between SEMG2 and CD27 than using full-length SEMG2 to prepare antibodies. For direct comparison, the differences in effective concentration of producing antibody by the two methods were verified using ELISA in the examples. Antibodies produced with SEMG2 (497-509) as immunogen and antibodies produced with full-length SEMG2 were added into the enzyme-linked immunosorbent assay (ELISA) reaction system at different concentrations (10^-2, 10^-1, 10^0, 10^1, 10^2, 10^3, 10^4 μg/mL), and the ELISA binding values were measured. The specific steps of enzyme-linked immunosorbent assay are as follows: (1) Dissolve SEMG2 protein antigen with 50 mM carbonate coating buffer (pH 9.6) to make the antigen concentration 10 μg/mL, and add into 96-well ELISA plate (purchased from Corning) at 100 μL/well, place at 4° C. overnight. (2) After discarding the coating solution on the next day, wash with PBST for three times, add 150 μL of 1% BSA to each well, and block for 2 hours at 37° C. […] (4) After washing for 5 times with PBST, add 100 of diluted HRP-labeled anti-human Fe secondary antibody, and incubate at 37° C. for 1 hour. (5) After washing with PBST for 5 times, 20 min after developing with chromogenic agent, the A450 absorption value was read using the microplate reader.
The SEMG2 (497-509) sequence was used to synthesize a polypeptide and coupled to a VLP carrier for immunization; HEK293 cells were used to express the full-length SEMG2 protein, and the purity was tested to reach 92%, and the binding activity of SEMG2 protein to CD27 was verified by ELISA. The protein and polypeptide antigens were used to immunize 10 mice respectively, and multiple immunizations were performed to enhance the effect: (1) The first immunization, 50 μg/mice of antigen, multiple subcutaneous injections together with Freund's complete adjuvant, with an interval of 3 weeks; (2) the second immunization; the same dosage and route as above, with incomplete Freund's adjuvant, and with an interval of 3 weeks; (3) the third immunization, the same dosage as above, without adjuvant, intraperitoneal injection with an interval of 3 weeks; (4) the booster immunization, the dose is 50 μg, intraperitoneal injection. 3 days after the last injection, blood was collected to measure its titer and the immune effect, and mice with higher titers were selected for hybridoma fusion screening. After subcloning, the binding of the monoclonal antibodies to the target antigens was detected by ELISA, and the function of different monoclonal antibodies in blocking the binding between SEMG2 and CD27 was measured by ELISA.
First, SEMG2(497-509) epitope-specific antibodies (for example, MM02, MM05) were compared with other epitope-specific antibodies (for example, HPA042767) for their function in blocking binding between SEMG2 and CD27 at different concentration ranges. […] The blocking function of different antibodies (irrelative mouse IgG, MM02, MM05, HPA042767) on binding between SEMG2 and CD27 was analyzed by the ELISA experiment as described in Example 11.
Further, the effects of different antibodies on the binding between SEMG2 and CD27 were compared under the condition of the same antibody concentration. In the ELISA, the same concentration (10 μg/mL) of antibody was used, and the strength of the binding between SEMG2 and CD27 was measured. […]
For orientation: ELISA stands for enzyme-linked immunosorbent assay.

B1: H88-96: fully human antibody from phage library against SEMG2(497-509), VH SEQ ID NO:54, VL SEQ ID NO:57 (antibody, V domains shown)
VH: QVQLLESGGGLVQPGGSLRLSCSASGFTFSSYAMHWVRQAPGKGLEYVSAISSNGGSTYYADSVKGRFTISRDNSKNTLYLQMSSLRAEDTAVYYCVIEGGSTTGTTSGAFDIWGQGTMVTVSS
VL: DIQMIQSPPSVSASVGDTVTIACRANQGIDSWLAWYQQKPGRAPKLLIYSASRLQSGVPSRFSGGGSGTDFALTISNLQPEDFATYYCQQALSLPITFGQGTRLEIK
modifications: UNSURE (1)..(124) VH; UNSURE (1)..(107) VL
With B1, the “apoptosis tumor cell ratio / killing by activated PBMC” value (from here on “apoptosis tumor cell ratio / killing”) in assay [1] and in assay [2] was “significantly promote the killing” throughout. For the same molecule, the “binding to SEMG2(497-509) epitope” value in assay [3] is given as “bind”. In addition, the “effect on the binding between SEMG2 and CD27” value (from here on “effect”) in assay [4] is reported as “inhibited the binding”.

B2: MM14: mouse monoclonal antibody against SEMG2(497-509), mIgG2b kappa, VH SEQ ID NO:40, VL SEQ ID NO:47 (antibody, V domains shown)
VH: QVQLKESGPGLVAPSQSLSITCTVSGFSLTSYAVSWVRQPPGKGLEWLGIIWGDGSTNYHSALISRLSISKDNSKSQVFLKLNSLQTDDTATYYCAKQERFSDGYYDGFAYWGQGTLVTVSA
VL: QIVLTQSPAIMSASPGEKVTITCSASSSVSYMHWFQQKPGTSPKLWIYSTSNLASGVPARFSGSGSGTSYSLTISRMEAEDAATYYCQQRSSYPFTFGSGTKLEIKRA
modifications: UNSURE (1)..(122) VH; UNSURE (1)..(108) VL
Consider B2, for which the “apoptosis tumor cell ratio / killing” value in assay [1] and in assay [2] was “significantly increased” each time. Also, in assay [3], the “binding to SEMG2(497-509) epitope” value was “bound”. The “effect” value in assay [4] is on record as “significantly reduced the binding”.

B3: MM08: mouse monoclonal antibody against SEMG2(497-509), mIgG1 kappa, VH SEQ ID NO:38, VL SEQ ID NO:45 (antibody, V domains shown)
VH: QVQLQQPGAELVRPGASVKLSCKSSDYTFTRYWMNWVKQRPGQGLEWIGMIDPSDSETHHNQMFKDKATLTVDKSSSTAYMQLSSLTSEDSAVYFCARYLGGKEGSFDYWGQGTTLTVSS
VL: DIVLTQSPSSLAVSAGERVTMSCKSSQSLFNSRTRKNYLAWYQQKPGQSPKLLLYWASTRESGVPDRFTGSGSGTDFTLTISSVKTEDLAVYYCKQSYELPWTFGGGTKLEMKRA
modifications: UNSURE (1)..(120) VH; UNSURE (1)..(115) VL
Take B3: the “apoptosis tumor cell ratio / killing” value in assay [1] and in assay [2] was “significantly increased” in each case. Further, the “binding to SEMG2(497-509) epitope” value in assay [3] is recorded as “bound”. The “effect” value in assay [4] is given as “significantly reduced the binding”.

B4: MM07: mouse monoclonal antibody against SEMG2(497-509), mIgG2b kappa, VH SEQ ID NO:37, VL SEQ ID NO:44 (antibody, V domains shown)
VH: MDWLWTLLFLMAAAQSIQAQIQLVQSGPELKKPGETVRISCKASGYTLTTAGMQWVQKIPGKGLKWIGWINTHSGVAEFAEDFKGRFAFSLETSANTAYLQIRNLKNEDTATYFCARLGLLGYWGQGTTLTVSS
VL: MVSSAQFLVFLLFWIPASRGDILLTQSPAILSVSPGERVSFSCRASQSIGTTIHWYQQRTNGSPRLLIKYASESISGIPSRFSGSGSGTDFTLSINSVESEDIADYYCQQSNSWPWTFGGGTKLEIKRA
modifications: UNSURE (1)..(134) VH; UNSURE (1)..(129) VL
For B4, the “apoptosis tumor cell ratio / killing” value in assay [1] and in assay [2] was “significantly increased” throughout. Besides, in assay [3], the “binding to SEMG2(497-509) epitope” value is listed as “bound”. In addition, the “effect” value in assay [4] was “significantly reduced the binding”.

(Values after patent US20230080534A1, “SEMG2 ANTIBODY AND USE THEREOF” (SHANGHAI BIOTROY BIOTECHNIQUE CO., LTD., priority 2020, published 2023).)
